From publication PMC3641235

Test system: HDM2 (C-terminal HA);p53 (human;human?)
Test: pull-down (anti-HA beads, real-time PCR)
Settings: 100 uM Nutlin-3A (disrupts p53-HDM2); Anti-HA protein G beads; blocked in PBST-3% BSA, IVT HDM2 30 min, Nutlin 1 h, IVT p53 1 h; washes PBST-0.1% BSA then PBS; temperature and pH not given

## 2ConA-HDM2 DNA template (two CONA p53 response elements)
  binding signal (fold reduction of DNA pulled down): 383
